# Measured values taken from patent US20200024330A1.
# B1: PGT-126 (antibody, V domains shown)
# VH: QPQLQESGPGLVEASETLSLTCTVSGDSTAACDYFWGWVRQPPGKGLEWIGGLSHCAGYYNTGWTYHNPSLKSRLTISLDTPKNQVFLKLNSVTAADTAIYYCARFDGEVLVYHDWPKPAWVDLWGRGTLVTVSS
# VL: QSALTQPPSASGSPGQSISISCTGTSNRFVSWYQQHPGKAPKLVIYGVNKRPSGVPDRFSGSKSGNTASLTVSGLQTDDEAVYYCSSLVGNWDVIFGGGTKLTVL
# What was measured:
# Assay in all cases: cell-based or functional assay
# [1] = target: HIV-1 JR-CSF Env N392Q (HIV-1 (isolate JR-CSF)) (UniProt P20871)
# [2] = target: HIV-1 JR-CSF Env R315A (HIV-1 isolate JR-CSF) (UniProt P20871)
# [3] = target: HIV-1 JR-CSF Env N355A (HIV-1 isolate JR-CSF) (UniProt P20871)
# [4] = target: HIV-1 JR-CSF Env I326A (HIV-1 isolate JR-CSF) (UniProt P20871)
# [5] = target: HIV-1 JR-CSF Env S306A (HIV-1 JR-CSF) (UniProt P20871)
# [6] = target: HIV-1 JR-CSF Env K421A (HIV-1 (isolate JR-CSF)) (UniProt P20871)
# [7] = target: HIV-1 JR-CSF Env D417A (HIV-1 (isolate JR-CSF)) (UniProt P20871)
# [8] = target: HIV-1 JR-CSF Env N262A (HIV-1 JR-CSF) (UniProt P20871)
# [9] = target: HIV-1 JR-CSF Env I420A (HIV-1 (isolate JR-CSF)) (UniProt P20871)
# [10] = target: HIV-1 JR-CSF Env V292A (HIV-1 JR-CSF) (UniProt P20871)
# [11] = target: Env of the clade A HIV-1 pseudoviruses of the cross-clade 162-pseudovirus panel (n = 26)
# [12] = target: HIV-1 JR-CSF Env T303A (HIV-1 JR-CSF) (UniProt P20871)
# [13] = target: HIV-1 Env of isolate 92TH021 (HIV-1)
# [14] = target: HIV-1 Env of isolate JR-CSF (HIV-1) (UniProt P20871)
# [15] = target: HIV-1 JR-CSF Env S393A (HIV-1 (isolate JR-CSF)) (UniProt P20871)
# [16] = target: HIV-1 JR-CSF Env E321aA (HIV-1 isolate JR-CSF) (UniProt P20871)
# [17] = target: HIV-1 JR-CSF Env S387A (HIV-1 (isolate JR-CSF)) (UniProt P20871)
# [18] = target: Env of the clade C HIV-1 pseudoviruses of the cross-clade 162-pseudovirus panel (n = 27)
# [19] = target: HIV-1 JR-CSF Env R419A (HIV-1 (isolate JR-CSF)) (UniProt P20871)
# [20] = target: HIV-1 JR-CSF Env D325A (HIV-1 isolate JR-CSF) (UniProt P20871)
# [21] = target: HIV-1 JR-CSF Env R327A (HIV-1 isolate JR-CSF) (UniProt P20871)
# [22] = target: HIV-1 JR-CSF Env P299A (HIV-1 JR-CSF) (UniProt P20871)
# [23] = target: HIV-1 JR-CSF Env Q422A (HIV-1 (isolate JR-CSF)) (UniProt P20871)
# [24] = target: HIV-1 JR-CSF Env N276A (HIV-1 JR-CSF) (UniProt P20871)
# [25] = target: HIV-1 JR-CSF Env P313A (HIV-1 JR-CSF) (UniProt P20871)
# [26] = target: Env of the clade F HIV-1 pseudoviruses of the cross-clade 162-pseudovirus panel (n = 15)
# [27] = target: HIV-1 JR-CSF Env I323A (HIV-1 isolate JR-CSF) (UniProt P20871)
# [28] = target: Env of the clade AG HIV-1 pseudoviruses of the cross-clade 162-pseudovirus panel (n = 10)
# [29] = target: HIV-1 JR-CSF Env N295A (HIV-1 JR-CSF) (UniProt P20871)
# [30] = target: HIV-1 JR-CSF Env K343A (HIV-1 isolate JR-CSF) (UniProt P20871)
# [31] = target: HIV-1 JR-CSF Env L416A (HIV-1 (isolate JR-CSF)) (UniProt P20871)
# [32] = target: HIV-1 JR-CSF Env N396A (HIV-1 (isolate JR-CSF)) (UniProt P20871)
# [33] = target: HIV-1 JR-CSF Env N339A (HIV-1 isolate JR-CSF) (UniProt P20871)
# [34] = target: HIV-1 JR-CSF Env W395A (HIV-1 (isolate JR-CSF)) (UniProt P20871)
# [35] = target: HIV-1 JR-CSF Env K305A (HIV-1 JR-CSF) (UniProt P20871)
# [36] = target: HIV-1 JR-CSF Env N386A (HIV-1 isolate JR-CSF) (UniProt P20871)
# [37] = target: HIV-1 JR-CSF Env F317A (HIV-1 isolate JR-CSF) (UniProt P20871)
# [38] = target: HIV-1 JR-CSF Env R304A (HIV-1 JR-CSF) (UniProt P20871)
# [39] = target: HIV-1 JR-CSF Env T202A (HIV-1 JR-CSF) (UniProt P20871)
binder,measurement,setting,value
B1,Fold IC50 increase relative to wild-type,[1],1.6 fold
same,Fold IC50 increase relative to wild-type,[2],1 fold
same,Fold IC50 increase relative to wild-type,[3],0.2 fold
same,Fold IC50 increase relative to wild-type,[4],0.8 fold
same,Fold IC50 increase relative to wild-type,[5],0.7 fold
same,Fold IC50 increase relative to wild-type,[6],0.7 fold
same,Fold IC50 increase relative to wild-type,[7],1 fold
same,Fold IC50 increase relative to wild-type,[8],1 fold
same,Fold IC50 increase relative to wild-type,[9],0.6 fold
same,Fold IC50 increase relative to wild-type,[10],5 fold
same,Median IC50 against viruses neutralized with an IC50 <50 µg/ml,[11],0.01 µg/mL
same,Fold IC50 increase relative to wild-type,[12],> 250 fold
same,"IC50 (µg/mL), pseudovirus neutralization",[13],0.197 µg/mL
same,Polyclonal Transfectant Neutralization Index (well 5141 B17),[13],2.74
same,Primary Neutralization Index (B cell culture well 5141 B17),[13],2.3
same,Polyclonal Transfectant Neutralization Index (well 5141 B17),[14],102
same,Primary Neutralization Index (B cell culture well 5141 B17),[14],1410
same,Fold IC50 increase relative to wild-type,[15],0.5 fold
same,Fold IC50 increase relative to wild-type,[16],0.6 fold
same,Fold IC50 increase relative to wild-type,[17],0.6 fold
same,Median IC50 against viruses neutralized with an IC50 <50 µg/ml,[18],0.18 µg/mL
same,Fold IC50 increase relative to wild-type,[19],1.2 fold
same,Fold IC50 increase relative to wild-type,[20],0.5 fold
same,Fold IC50 increase relative to wild-type,[21],2.2 fold
same,Fold IC50 increase relative to wild-type,[22],0.2 fold
same,Fold IC50 increase relative to wild-type,[23],1.1 fold
same,Fold IC50 increase relative to wild-type,[24],0.9 fold
same,Fold IC50 increase relative to wild-type,[25],0.4 fold
same,Median IC50 against viruses neutralized with an IC50 <50 µg/ml,[26],0.05 µg/mL
same,Fold IC50 increase relative to wild-type,[27],0.9 fold
same,Median IC50 against viruses neutralized with an IC50 <50 µg/ml,[28],0.03 µg/mL
same,Fold IC50 increase relative to wild-type,[29],0.9 fold
same,Fold IC50 increase relative to wild-type,[30],1.2 fold
same,Fold IC50 increase relative to wild-type,[31],0.8 fold
same,Fold IC50 increase relative to wild-type,[32],1.7 fold
same,Fold IC50 increase relative to wild-type,[33],0.6 fold
same,Fold IC50 increase relative to wild-type,[34],0.6 fold
same,Fold IC50 increase relative to wild-type,[35],1 fold
same,Fold IC50 increase relative to wild-type,[36],0.9 fold
same,Fold IC50 increase relative to wild-type,[37],1 fold
same,Fold IC50 increase relative to wild-type,[38],1.8 fold
same,Fold IC50 increase relative to wild-type,[39],0.8 fold
